# Like-named read-outs stand apart in the source and are kept apart here.
# What was measured:
# [1] = target: YjdL-Ala281Phe (E. coli) (UniProt P39276)
# [2] = target: YjdL Tyr25Phe (E. coli) (UniProt P39276)
# [3] = target: YjdL from E. coli, wild type (E. coli) (UniProt P39276)
# [4] = target: T1, WT-YdgR (Escherichia coli, UniProt P77304); assay: cell-based; type: cell-based, E. coli; conditions: 25 mM Tris-HCl, 50 mM MOPS pH 7.4, 0.2 mM β-Ala-Lys(AMCA), 5 min
# T1 construct: expressed in transfected cells; host or cells: E. coli BL21(DE3)pLysS, pTTQ18-ydgR, IPTG-induced
# T1 sequence (P77304 1-500): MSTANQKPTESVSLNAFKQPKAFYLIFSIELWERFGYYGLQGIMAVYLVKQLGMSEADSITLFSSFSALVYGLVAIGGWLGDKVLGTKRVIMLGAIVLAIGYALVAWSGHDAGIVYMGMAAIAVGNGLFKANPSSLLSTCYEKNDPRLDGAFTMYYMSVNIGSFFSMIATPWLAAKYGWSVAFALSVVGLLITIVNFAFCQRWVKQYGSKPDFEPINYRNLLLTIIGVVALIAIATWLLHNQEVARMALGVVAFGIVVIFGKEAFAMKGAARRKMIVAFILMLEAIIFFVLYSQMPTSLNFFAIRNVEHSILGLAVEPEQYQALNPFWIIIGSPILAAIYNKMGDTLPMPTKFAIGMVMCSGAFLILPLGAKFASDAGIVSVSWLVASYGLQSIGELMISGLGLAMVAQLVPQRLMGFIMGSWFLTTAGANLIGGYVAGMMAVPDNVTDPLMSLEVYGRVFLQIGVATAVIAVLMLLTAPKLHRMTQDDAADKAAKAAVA
# Method: (§1) Plasmids were transformed into E. coli BL21(DE3)pLysS cells by heat shock and transformants were selected on agar plates containing 100 µg/mL ampicillin and 34 µg/mL chloramphenicol. Single transformants were inoculated into 2 mL LB-media with antibiotics as above and grown overnight. The cultures were diluted 1∶50 in 5 mL LB-media with antibiotics as above, and at an OD600 of 0.5–0.8 protein expression was induced by the addition of 1 mM isopropyl β-D-1-thiogalactopyranoside (IPTG). […]
# (§2) Uptake assays were performed as previously described, [20]. In a final assay volume of 100 µL; 0.2 mM β-Ala-Lys-N-7-amino-4-methylcoumarin-3-acetic acid (β-Ala-Lys(AMCA), Biotrend) (10 µL) and various concentrations of ligands (purchased from Bachem or Sigma-Aldrich) or uptake buffer (50 µL) were incubated with bacterial cell suspension (OD600 = 10, 40 µL) at 37°C. After 5 min, the uptake was stopped by addition of 500 µL ice-cold uptake buffer followed by immediate centrifugation and washing twice in ice-cold uptake buffer. Finally the cell pellet was resuspended in 100 µL uptake buffer, and the uptake was quantified by fluorescence measurements (excitation at 340 nm and emission at 460 nm) on a Safire 2 fluorimeter. Non-specific uptake was measured as described above on IPTG-induced E. coli BL21(DE3)pLysS cells harboring the empty pTTQ18 vector. All uptake assay experiments were reproduced at least three times independently and data analyses were performed using GraphPad Prism ver. 5.
# [5] = target: T2, WT-YjdL (Escherichia coli, UniProt P39276); assay: cell-based; type: cell-based, E. coli; conditions: 25 mM Tris-HCl, 50 mM MOPS pH 7.4, 0.2 mM β-Ala-Lys(AMCA), 5 min
# T2 construct: expressed in transfected cells; host or cells: E. coli BL21(DE3)pLysS, pTTQ18-yjdL, IPTG-induced
# T2 sequence (P39276 1-485): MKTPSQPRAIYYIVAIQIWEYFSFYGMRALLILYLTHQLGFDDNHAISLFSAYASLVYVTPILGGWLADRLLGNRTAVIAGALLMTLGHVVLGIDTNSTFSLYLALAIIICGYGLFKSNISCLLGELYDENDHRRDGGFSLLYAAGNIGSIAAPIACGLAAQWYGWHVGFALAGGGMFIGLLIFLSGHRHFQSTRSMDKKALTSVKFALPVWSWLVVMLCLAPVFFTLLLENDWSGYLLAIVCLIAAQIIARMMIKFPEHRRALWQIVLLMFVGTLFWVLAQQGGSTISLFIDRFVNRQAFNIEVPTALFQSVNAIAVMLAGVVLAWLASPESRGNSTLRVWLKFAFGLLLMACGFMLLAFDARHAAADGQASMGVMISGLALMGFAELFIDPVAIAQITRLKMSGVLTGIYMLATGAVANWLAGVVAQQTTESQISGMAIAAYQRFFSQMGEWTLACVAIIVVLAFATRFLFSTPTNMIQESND
# Method: as §1, §2
# [6] = target: YjdL from E. coli, wild type (E. coli) (UniProt P39276); remark: listed apart in the source
# [7] = target: YjdL Tyr21Phe (E. coli) (UniProt P39276)
# [8] = target: YjdL-Ala281Phe (E. coli) (UniProt P39276); remark: listed apart in the source
# [9] = target: YjdL Tyr113Phe (E. coli) (UniProt P39276)
# [10] = target: YjdL Tyr58Phe (E. coli) (UniProt P39276)
# [11] = target: YjdL-Trp278Phe (E. coli) (UniProt P39276)
# [12] = target: YjdL Tyr25Phe (E. coli) (UniProt P39276); remark: listed apart in the source
# [13] = target: YjdL from E. coli, wild type (E. coli) (UniProt P39276); remark: listed apart in the source
substance,measurement,setting,value
Met-Lys (peptide),"IC50 of inhibition of β-Ala-Lys(AMCA) uptake into E. coli cells (0.2 mM substrate, 5 min, pH 6.5)",[1],0.17 mM
same,"IC50 of inhibition of β-Ala-Lys(AMCA) uptake into E. coli cells (0.2 mM substrate, 5 min, pH 6.5)",[2],0.61 mM
same,"IC50 of inhibition of β-Ala-Lys(AMCA) uptake into E. coli cells (0.2 mM substrate, 5 min, pH 6.5)",[3],0.53 mM
Tris,"inhibition of β-Ala-Lys(AMCA) uptake, WT-YdgR",[4],no significant inhibition
same,"inhibition of β-Ala-Lys(AMCA) uptake, WT-YjdL",[5],weak
Trp-Lys (peptide),"IC50 of inhibition of β-Ala-Lys(AMCA) uptake into E. coli cells (0.2 mM substrate, 5 min, pH 6.5)",[1],0.09 mM
same,"IC50 of inhibition of β-Ala-Lys(AMCA) uptake into E. coli cells (0.2 mM substrate, 5 min, pH 6.5)",[2],0.58 mM
same,"IC50 of inhibition of β-Ala-Lys(AMCA) uptake into E. coli cells (0.2 mM substrate, 5 min, pH 6.5)",[3],0.6 mM
Tyr-Ala (peptide),"β-Ala-Lys(AMCA) uptake (0.5 mM) left with 50 mM competitor, E. coli cells, pH 6.5",[6],< 10%
same,"IC50 of inhibition of β-Ala-Lys(AMCA) uptake into E. coli cells (0.2 mM substrate, 5 min, pH 6.5)",[7],4.7 mM
same,"IC50 of inhibition of β-Ala-Lys(AMCA) uptake into E. coli cells (0.2 mM substrate, 5 min, pH 6.5)",[8],33.2 mM
same,"IC50 of inhibition of β-Ala-Lys(AMCA) uptake into E. coli cells (0.2 mM substrate, 5 min, pH 6.5)",[9],1.3 mM
same,"IC50 of inhibition of β-Ala-Lys(AMCA) uptake into E. coli cells (0.5 mM substrate, 15 min, pH 6.5)",[10],24.1 mM
same,"IC50 of inhibition of β-Ala-Lys(AMCA) uptake into E. coli cells (0.2 mM substrate, 5 min, pH 6.5)",[11],2.8 mM
same,"IC50 of inhibition of β-Ala-Lys(AMCA) uptake into E. coli cells (0.2 mM substrate, 5 min, pH 6.5)",[12],33.7 mM
same,"IC50 of inhibition of β-Ala-Lys(AMCA) uptake into E. coli cells (0.2 mM substrate, 5 min, pH 6.5)",[13],2.4 mM
same,"IC50 of inhibition of β-Ala-Lys(AMCA) uptake into E. coli cells (0.5 mM substrate, 15 min, pH 6.5)",[13],2.4 mM
Tyr-Lys (peptide),"IC50 of inhibition of β-Ala-Lys(AMCA) uptake into E. coli cells (0.2 mM substrate, 5 min, pH 6.5)",[1],0.03 mM
same,"IC50 of inhibition of β-Ala-Lys(AMCA) uptake into E. coli cells (0.2 mM substrate, 5 min, pH 6.5)",[2],0.67 mM
same,"IC50 of inhibition of β-Ala-Lys(AMCA) uptake into E. coli cells (0.2 mM substrate, 5 min, pH 6.5)",[3],0.55 mM

# Source: paper PMC3478282, “Probing the Putative Active Site of YjdL: An Unusual Proton-Coupled Oligopeptide Transporter from E. coli” (PLoS ONE, 2012)
